Source: patent US20090298167A1 (Pfizer, published 2009)
Changes are numbered by the printed parent chain.

Experiments:
[1] = target: T1, human IL-21R expressed on cells (human, UniProt Q9HBE5 20-538); assay: cell-based or functional assay
[2] = target: murine IL-21R expressed on cells (murine, UniProt Q9JHX3 20-529); assay: cell-based or functional assay
[3] = target: T1, human IL-21R expressed on cells; assay: cell ELISA on transfected CHO cells, 13 nM IgG
Procedure: (§1) A subset of binding proteins was tested for binding to rat, cynomolgus monkey, human IL-21R, or human IL-2R-γ common subunit expressed transiently on the surfaces of CHO-PA-Dukx cells. Cells were transfected 48 hr prior to the assay. On the day of the assay, cells were washed gently 5× in PBS containing 0.9 mM CaCl₂ and 0.45 mM MgCl₂ (PBS/CaMg) on an automated plate washer (Titertek, Huntsville, Ala.), and blocked for 1 hr at RT in PBS/CaMg/5% nonfat dry milk. Conditioned media from transiently expressed anti-IL-21R IgGs were serially diluted in blocking buffer and added to the cells in the blocked plates for 1 hr at RT. Cells were washed 5× with PBS/CaMg and then incubated with horseradish peroxidase-conjugated anti-human IgG for 1 hr at RT. Cells were then washed 10× in PBS/CaMg and all of the wash buffer was removed. Cells were incubated with 100 μl TMB until the color reaction reached saturation, stopped with 100 μl of 0.18 M H₂SO₄, and read at A450 on a Perkin Elmer ENVISION™ plate reader.

[4] = target: T2, rat IL-21R expressed on cells (rat); assay: cell ELISA on transfected CHO cells, 13 nM IgG
T2 construct: whole, on cells; Transiently transfected CHO-PA-Dukx cells
Procedure: as §1

[5] = target: T3, cynomolgus monkey IL-21R expressed on CHO cells (cynomolgus monkey); assay: cell ELISA on transfected CHO cells, 13 nM IgG
T3 construct: whole, on cells
Procedure: as §1

[6] = target: T4, human gamma common chain expressed on CHO cells (human, UniProt P31785 23-369); assay: cell ELISA on transfected CHO cells, 13 nM IgG
T4 construct: whole, on cells; Control protein; also called human IL-2R-γ common subunit; human gamma (γ) common chain
T4 sequence (looked up): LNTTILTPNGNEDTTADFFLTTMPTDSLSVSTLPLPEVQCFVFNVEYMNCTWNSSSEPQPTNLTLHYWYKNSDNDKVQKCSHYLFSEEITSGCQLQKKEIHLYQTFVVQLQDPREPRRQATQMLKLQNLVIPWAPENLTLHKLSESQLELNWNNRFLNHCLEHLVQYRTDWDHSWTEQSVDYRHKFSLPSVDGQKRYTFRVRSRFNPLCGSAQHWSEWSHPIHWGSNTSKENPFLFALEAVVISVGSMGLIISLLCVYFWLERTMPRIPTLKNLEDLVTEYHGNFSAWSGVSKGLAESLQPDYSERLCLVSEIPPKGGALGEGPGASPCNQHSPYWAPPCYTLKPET
Procedure: as §1

[7] = target: T2, rat IL-21R expressed on cells; assay: cell-based or functional assay

T1 sequence (Q9HBE5 20-538 limits assumed): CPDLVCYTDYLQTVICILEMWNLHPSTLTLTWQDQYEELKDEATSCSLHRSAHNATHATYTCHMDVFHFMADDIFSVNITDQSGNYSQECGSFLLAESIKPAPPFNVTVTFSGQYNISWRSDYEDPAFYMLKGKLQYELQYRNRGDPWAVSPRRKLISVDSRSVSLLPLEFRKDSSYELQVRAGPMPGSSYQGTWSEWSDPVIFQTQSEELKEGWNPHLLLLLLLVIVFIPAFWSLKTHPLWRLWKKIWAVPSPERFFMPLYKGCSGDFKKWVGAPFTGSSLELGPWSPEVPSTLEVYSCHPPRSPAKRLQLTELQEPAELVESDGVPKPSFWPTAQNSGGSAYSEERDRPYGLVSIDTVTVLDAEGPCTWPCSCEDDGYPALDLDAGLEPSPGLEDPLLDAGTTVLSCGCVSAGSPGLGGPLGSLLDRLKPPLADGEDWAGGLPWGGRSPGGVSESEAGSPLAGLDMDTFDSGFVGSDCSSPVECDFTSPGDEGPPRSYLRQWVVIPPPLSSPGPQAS
Sequence of murine IL-21R expressed on cells (Q9JHX3 20-529 limits assumed): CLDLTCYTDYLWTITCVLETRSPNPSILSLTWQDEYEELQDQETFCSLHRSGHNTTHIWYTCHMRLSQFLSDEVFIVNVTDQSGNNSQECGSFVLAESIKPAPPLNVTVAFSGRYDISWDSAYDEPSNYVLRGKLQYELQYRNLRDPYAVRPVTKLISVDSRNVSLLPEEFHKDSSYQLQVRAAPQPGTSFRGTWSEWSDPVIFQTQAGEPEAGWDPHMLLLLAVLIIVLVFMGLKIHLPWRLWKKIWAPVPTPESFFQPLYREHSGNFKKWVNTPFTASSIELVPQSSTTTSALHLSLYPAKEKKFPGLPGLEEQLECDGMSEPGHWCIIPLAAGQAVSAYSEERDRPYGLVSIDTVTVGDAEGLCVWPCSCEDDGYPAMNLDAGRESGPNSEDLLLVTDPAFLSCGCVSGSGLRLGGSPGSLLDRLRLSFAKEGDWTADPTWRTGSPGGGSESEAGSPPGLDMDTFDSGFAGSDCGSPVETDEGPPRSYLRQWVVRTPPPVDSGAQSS

B1: AbN (antibody, human IgG1, V domains shown)
VH: QVQLQESGPGLVKPSETLSLTCAVSGYSISSGYYWGWIRQPPGKGLEWIGSISHTGNTYYNPPLKSRVTISVDTSKNQFSLKLSSVTAADTAVYYCARFFGFGRPEYWGQGTLVTVSS
VL: SSELTQDPAVSVALGQTVRITCQGDSLRTYYASWYQQKPGQAPVLVIYGKHKRPSGIPDRFSGSSSGNTASLTITGAQAEDEADYYCIARSNKGNPHVLFGGGTQLTVL
notes: Full-length human IgG1 / human lambda, transient, conditioned medium; Framework limits derived; also called VH6/VL24
[1]
  Human IL-21R-BaF3 Proliferation IC50: 0.5 nM
  Human IL-21R-TF1 Proliferation IC50: 1.59 nM
[2]
  Murine IL-21R-BaF3 Proliferation IC50: 0.435 nM
[3]
  A450 at 13 nM Ab in cell ELISA: 1.21 A450
[4]
  A450 at 13 nM Ab in cell ELISA: 0.702 A450
[5]
  A450 at 13 nM Ab in cell ELISA: 1.5 A450
[6]
  A450 at 13 nM Ab in cell ELISA: 0.136 A450

B2: AbV (antibody, human IgG1, V domains shown)
VH: B1 VH with F100M
VL: B1 VL with I88V, N92V, K93V
[7]
  IC50 (nM) experiment 1, rat T cell proliferation: 70.5 nM
  IC50 (nM) experiment 2, rat T cell proliferation: 59.2 nM

B3: AbW (antibody, human IgG1, V domains shown)
VH: B1 VH with F100M
VL: B1 VL with I88V, A89T, N92V
[7]
  IC50 (nM) experiment 1, rat T cell proliferation: 159 nM
  IC50 (nM) experiment 2, rat T cell proliferation: 94.7 nM
